# According to the supplement of paper PMC10065799, “High-throughput profiling of sequence recognition by tyrosine kinases and SH2 domains using bacterial peptide display” (eLife, 2023):
# Target: FGFR1 (UniProt P11362)
# Assay: phosphorylation enrichment, bacterial display (enrichment ratio); higher = better substrate or ligand; peptides without Tyr show the background
# 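For phosphorylation enrichment, bacterial display in this document: 11-residue human phosphosite peptides and single-mutation variants displayed on the E. coli surface, counted by deep sequencing, each peptide's frequency after selection divided by its frequency in the unselected input library; frequency after pTyr selection over input frequency; kinase dosed for 20-30% of maximal phosphorylation in three min.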
# FGFR1, sequence (P11362 whole entry, looked up): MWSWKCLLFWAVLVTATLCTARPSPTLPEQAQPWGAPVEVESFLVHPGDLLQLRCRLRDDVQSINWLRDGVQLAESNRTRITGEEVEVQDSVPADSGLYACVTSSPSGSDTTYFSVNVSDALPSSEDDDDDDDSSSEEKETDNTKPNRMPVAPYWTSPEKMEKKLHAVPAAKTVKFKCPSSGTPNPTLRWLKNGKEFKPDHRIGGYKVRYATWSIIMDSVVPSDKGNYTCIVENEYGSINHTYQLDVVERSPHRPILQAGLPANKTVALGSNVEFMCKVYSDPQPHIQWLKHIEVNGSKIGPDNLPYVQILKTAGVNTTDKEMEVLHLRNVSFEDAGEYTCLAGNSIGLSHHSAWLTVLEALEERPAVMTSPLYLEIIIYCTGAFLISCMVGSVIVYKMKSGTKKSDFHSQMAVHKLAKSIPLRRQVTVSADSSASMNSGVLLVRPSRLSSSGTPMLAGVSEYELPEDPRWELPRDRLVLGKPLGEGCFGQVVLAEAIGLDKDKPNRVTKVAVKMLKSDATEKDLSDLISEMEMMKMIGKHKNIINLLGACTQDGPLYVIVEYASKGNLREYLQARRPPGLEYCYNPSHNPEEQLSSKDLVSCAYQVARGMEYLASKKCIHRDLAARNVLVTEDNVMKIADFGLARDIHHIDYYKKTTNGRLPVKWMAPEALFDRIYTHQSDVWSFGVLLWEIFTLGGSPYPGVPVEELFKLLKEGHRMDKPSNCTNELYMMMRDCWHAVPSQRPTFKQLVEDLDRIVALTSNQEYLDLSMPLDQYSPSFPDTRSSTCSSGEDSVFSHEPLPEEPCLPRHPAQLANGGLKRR
row,Sequence,phosphorylation enrichment
1,FRPPYYHRNCM [HGD_Y334],0.513
2,LEGKEYRMSGE [KRT3_Y511_E509K],0.432
3,PLDGEYFTLQV [TP53_Y327_I332V],12.8
4,DNEALYDTCFR [TUBB2B_Y208_I210T],0.61
5,AALVQYYMEHH [PTPN11_Y80_E76A],0.722
6,INMKEYCKKDY [NTN1_Y490_K489E],0.447
7,SLEKGYELPDG [ACTC1_Y242_S241G],0.438
8,RYVTRSIYNRE [HLA-DQB1_Y62_Y62S],0.622
9,CENCHYPILPL [LCK_Y25_V28L],0.541
10,MHRRQYELLGG [GNAS_Y391_L388R],0.5
11,DYSLKYATDIP [APC_Y1183],0.6
12,EIKLAYRRRPP [GRIN2B_Y1109_E1106K],0.537
13,NIEPIYLNMLL [ATR_Y317_V316I],10.7
14,AGIVDYNIIGW [MYH7_Y588],0.873
15,VLVSQYEKLNA [AMZ2_Y26],0.362
16,FSAPNCCYRCG [PPP2CA_Y265_Y265C],0.489
17,RYVSRYIYNRE [HLA-DQB1_Y62_T60S],0.658

row,Sequence,phosphorylation enrichment
1,IFSGIYFKPES [L2HGDH_Y102_H98Y_YF],1.3
2,YENGEYIIRQG [PRKG1_Y247],0.432
3,RLSVDCGKKSK [TUBA4A_Y161_Y161C],0.444
4,KSVITYSPTTG [ITGB3BP_Y32],0.37
5,CTTIHYIYMCN [TP53_Y234_N235I],0.404
6,KMKGEYYRYLA [YWHAG_Y130_D129E],4.78
7,LSPPVYLTNEW [NRK_Y885_I880L],0.702
8,LIEQAYDNLHE [PRPF8_Y871_P874L],0.6
9,FCRIMYDIFPF [INTS13_Y67_YF],0.531
10,GRTNIYNNKKD [SLC26A3_Y520_K521N],0.324
11,LISVSYDDWDY [GRIN2A_Y281],0.901
12,ETAENYLGFTA [HSPA9_Y181_H184Y_YF],0.578
13,MKKMHYVDPDH [ST3GAL5_Y99],0.338
14,DASAVYLHDFQ [PLCG2_Y242],0.477
15,DFPGIYSGYDD [POLR1C_Y33_N32I],0.485
16,IVAREYYSDAD [CAMK2A_Y106_E109D],0.657

# Target: c-Src SH2;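 also: peptide library displayed on the E. coli surface as eCPX fusions, selected cells deep-sequenced, score is each peptide's frequency after selection divided by its frequency in the input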
# Assay: SH2 binding enrichment of the phosphorylated peptide, bacterial display (enrichment ratio); higher = better substrate or ligand; peptides without Tyr show the background
row,Sequence,SH2 binding enrichment
1,FRPPYYHRNCM [HGD_Y334],1.15
2,LEGKEYRMSGE [KRT3_Y511_E509K],0.362
3,INMKEYCKKDY [NTN1_Y490_K489E],0.498
4,SLEKGYELPDG [ACTC1_Y242_S241G],5.21
5,RYVTRSIYNRE [HLA-DQB1_Y62_Y62S],0.543
6,CENCHYPILPL [LCK_Y25_V28L],0.912
7,MHRRQYELLGG [GNAS_Y391_L388R],2.1
8,DYSLKYATDIP [APC_Y1183],0.443
9,EIKLAYRRRPP [GRIN2B_Y1109_E1106K],0.362
10,NIEPIYLNMLL [ATR_Y317_V316I],0.424
11,AGIVDYNIIGW [MYH7_Y588],0.566
12,VLVSQYEKLNA [AMZ2_Y26],2.71
13,RYVSRYIYNRE [HLA-DQB1_Y62_T60S],0.368
14,IFSGIYFKPES [L2HGDH_Y102_H98Y_YF],0.77
15,KSVITYSPTTG [ITGB3BP_Y32],0.507
16,LSPPVYLTNEW [NRK_Y885_I880L],0.58
17,FCRIMYDIFPF [INTS13_Y67_YF],0.8
18,LISVSYDDWDY [GRIN2A_Y281],1.9
19,ETAENYLGFTA [HSPA9_Y181_H184Y_YF],0.45
20,DASAVYLHDFQ [PLCG2_Y242],0.542
21,IVAREYYSDAD [CAMK2A_Y106_E109D],3.1

# The remaining lines, values ahead:
row,SH2 binding enrichment,Sequence
1,0.483,PLDGEYFTLQV [TP53_Y327_I332V]
2,0.56,DNEALYDTCFR [TUBB2B_Y208_I210T]
3,0.742,AALVQYYMEHH [PTPN11_Y80_E76A]
4,0.582,FSAPNCCYRCG [PPP2CA_Y265_Y265C]
5,9.41,YENGEYIIRQG [PRKG1_Y247]
6,0.884,RLSVDCGKKSK [TUBA4A_Y161_Y161C]
7,0.716,CTTIHYIYMCN [TP53_Y234_N235I]
8,1.25,KMKGEYYRYLA [YWHAG_Y130_D129E]
9,5.09,LIEQAYDNLHE [PRPF8_Y871_P874L]
10,0.634,GRTNIYNNKKD [SLC26A3_Y520_K521N]
11,0.548,MKKMHYVDPDH [ST3GAL5_Y99]
12,1.44,DFPGIYSGYDD [POLR1C_Y33_N32I]
